The experiment addresses Manduca sexta V-ATPase subunit c (c ring) (Manduca sexta (endogenous in midgut)). Description: cryo-EM structure; M. sexta V-ATPase holoenzyme purified from tissue, in C12E10; 9.4 Å reconstruction (gold standard FSC 0.143); homology models of the subunits flexibly fitted by MDFF; side chains not resolved.

A word on the stoichiometry N: it is the number of molecules, sites or subunits per partner or assembly.

The substance “Manduca sexta V-ATPase subunit c (c ring) (natural protein)” showed a stoichiometry N of 8.

The values above are taken from article PMC4353692.
